According to the supplement of paper PMC10126150:
± gives the standard deviation of the averaged measurements.

System: ATP
Test: switch fluorescence ratio, 500 uM ATP over buffer (Cy3 cluster intensity, sum of 5 cycles each) (fold (ratio)); higher = stronger signal-on switching upon ATP binding; sequences stand for … in TCGTCGGCAGCGTCAGATGTGTATAAGAGACAGTTTTTTTTTTTTTTTTTTTTTTTTT…TC
Settings: aptamer strand: ATP DNA aptamer (quencher-CACCTGGGGGAGTATTGCGGAGGAAGG + anchor), 100 nM annealed; ATP concentration: 500 uM
How it was run: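 Between each of five buffer/ATP cycles, the flow-cell was stripped with NaOH and re-annealed. Each cycle imaged Cy3-labelled switching-strand clusters, annealed to 100 nM quencher-labelled ATP aptamer on a modified Illumina MiSeq flow-cell, first in selection buffer and then after 15 min with 500 uM ATP at 22 °C. The fluorescence ratio is summed target-cycle over summed buffer-cycle Cy3 intensity per cluster, averaged per switch-domain sequence, with clusters outside 100-1000 RFU excluded.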
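Also: ATP exposure 15 min at 22 °C before imaging.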

Point of comparison: AGGCCGTCCT, switch fluorescence ratio 1.02 ± 0.1. Against it:
- ATGGGGTTTG — within error, 0.974 ± 0.018
- CGGTCTCATC — the same, 1.02 ± 0.014
- TTATCGAATG — within error, 0.965 ± 0.065
- TATTTGGCTT — within error, 1 ± 0.025
- GGAAGGTGGT — within error, 0.987 ± 0.024
- CGTGAAAATC — within error, 0.9987 ± 0.0075
- GGGTGTTGCT — within error, 1 ± 0.017
- CATGGTGGGA — within error, 0.969 ± 0.017
- CCTGGATTCA — within error, 0.9888 ± 0.002
- AGGCCGTCGT — within error, 1.043 ± 0.0064
- CGAGGGGAGG — within error, 1.05 ± 0.028
- ATTGTGCTGG — within error, 0.983 ± 0.018
- ACCGTCAGGT — within error, 1 ± 0.085
- GCACTTGTTT — within error, 1 ± 0.028
- ATTTTACGAT — within error, 0.999 ± 0.049
- AGTCCGGGAT — within error, 1.07 ± 0.044
- TTGAAAAAAC — within error, 1.04 ± 0.074
- GGCTTCGGGG — within error, 0.98028 ± 0.00081
- GTGATCTTTT — within error, 1 ± 0.049
- TGGGGCTAAG — within error, 1.01 ± 0.034
- TAGAAATGAT — within error, 0.987 ± 0.033
- CAGGTTTTGT — within error, 1.01 ± 0.036
- GGATTCGATT — within error, 0.987 ± 0.03
- TTTGGAGATG — the same, 1.02 ± 0.023
- CAGACTTCGG — within error, 0.934 ± 0.016
- ATGGTTATGT — within error, 1.03 ± 0.026
- AGTATGTAAA — the same, 1.02 ± 0.017
- ATGACGGGGT — within error, 1.05 ± 0.085
- CAGGGAGCAG — within error, 1.05 ± 0.03
- CCATGGCGGG — within error, 0.97 ± 0.028
- TAAGCTGTCA — within error, 0.965 ± 0.064
- TAGGATGGGG — within error, 1 ± 0.032
- TTGTTTTGCT — within error, 0.999 ± 0.073
- CCCGGTATAT — within error, 1.22 ± 0.12
- CAACGGGTGC — higher, 1.75 ± 0.21
- GTGGTTCTTT — within error, 0.989 ± 0.044
- CTAGGGGGGG — within error, 0.988 ± 0.021
- GGGGGAATTT — within error, 0.993 ± 0.028
- CATGTCAGGA — the same, 1.02 ± 0.018
- AACTTGAAAT — within error, 1.47 ± 0.69
- TATTTTGTAG — within error, 0.995 ± 0.019
- TAGAGGCGAA — within error, 1 ± 0.011
- TGCAATTACT — higher, 3.21 ± 0.24
- GGAATCCTTT — within error, 0.998 ± 0.0088
- GGAGTTTAGT — within error, 1.008 ± 0.0016
- ATCTCGGGTG — within error, 1.01 ± 0.043
- TTTAGTTGAT — within error, 1.01 ± 0.031
- AGAGGTTAGG — within error, 0.9874 ± 0.0033
- AATCTAACGT — within error, 0.9937 ± 0.008
- TTAGTACTGA — within error, 1.05 ± 0.035
- TTCGCGCGGT — within error, 1.04 ± 0.077
- CGGTGGTGAG — within error, 1.012 ± 0.0049
- TGAGGTATTA — within error, 1.0075 ± 0.00077
- GGTCGCAGTC — within error, 0.9649 ± 0.0016
- ATTGGCGCGG — within error, 0.969 ± 0.012
- ATGTTTGGTG — within error, 0.97 ± 0.019
- TGATGGCCTG — within error, 0.986 ± 0.067
- GCGGGGGGCT — within error, 1.03 ± 0.041
- GCTCTTTGGG — within error, 1.06 ± 0.13
- TAGTATGGGA — within error, 0.968 ± 0.013
- AGAGCGGTTC — within error, 1.06 ± 0.11
- TTACGAAGTT — within error, 1 ± 0.019
- AATTAAGGCA — within error, 0.9756 ± 0.0065
- TCATTTTGTT — within error, 1 ± 0.028
- AACCGCGTTG — within error, 1.06 ± 0.012
- ATTGTTACTT — the same, 1.02 ± 0.019
- GGTGTGGTCA — within error, 0.977 ± 0.035
- TACGTTATTT — higher, 1.16 ± 0.027
- TGTGTATGGC — within error, 1.12 ± 0.19
- CATCCTTGGA — within error, 0.996 ± 0.012
- AGAAGGGATT — within error, 1.03 ± 0.015
- TTTCTAGTGA — within error, 0.991 ± 0.047
- TACGCGGGCA — within error, 1.07 ± 0.11
- AGGTTTTGGT — within error, 1 ± 0.055
- TTCCCATTTT — within error, 0.995 ± 0.013
- CGTTATAAAT — within error, 0.996 ± 0.029
- TTAGGGCGAC — within error, 1 ± 0.044
- CGGCAATGTT — higher, 1.73 ± 0.14
- CCGTTTTGCG — the same, 1.02 ± 0.027
- TGGGCTTTTT — within error, 0.982 ± 0.041
- GATTCGCCTG — within error, 0.99 ± 0.016
- GTCGTTCGCA — within error, 1.15 ± 0.11
- GGGAATGGGG — within error, 0.992 ± 0.044
- ATGTTCTTCT — within error, 0.982 ± 0.018
- TTTACTTATT — within error, 1 ± 0.019
- CAAGGCCTGT — within error, 0.971 ± 0.017
- ATCGGAGGGC — the same, 1.02 ± 0.013
- TATATATAGG — within error, 1 ± 0.025
- TCAGGGGATG — within error, 0.99 ± 0.026
- TGTTTATTTA — within error, 0.983 ± 0.0018
- ACCTTCTTTT — within error, 1.11 ± 0.11
- CGCTGGGTCA — within error, 1.04 ± 0.13
- GGAGCATGAG — higher, 2.47 ± 0.14
- ATCTGCTAGG — within error, 1.01 ± 0.031
- GGCTCTTATT — within error, 1.009 ± 0.0057
- TGGTCGTATT — within error, 0.9577 ± 0.0063
- CGTAGTTTCG — within error, 1.013 ± 0.008
- TATGTTTCAG — within error, 0.972 ± 0.038
- ATAACAGGGC — within error, 0.952 ± 0.037
- CGCTCTTGTA — within error, 0.991 ± 0.012
- TTTCAAGATT — within error, 0.998 ± 0.015
- ACGTATTTTT — within error, 1.12 ± 0.018
- TTTAACCTTT — within error, 1.05 ± 0.051
- GGGTCTCGTT — within error, 1.01 ± 0.013
- TCAGAGGCGG — within error, 1 ± 0.011
- TGAGAAGGGG — within error, 0.991 ± 0.041
- ATATGGTCGT — within error, 0.998 ± 0.017
- TTTGGGATCA — within error, 0.9846 ± 0.0073
- GATTTTGCCA — within error, 0.9675 ± 0.0045
- TTGTTCGTTT — within error, 0.986 ± 0.025
- TATTTATGTC — the same, 1.02 ± 0.025
- GGGAATCAAG — within error, 0.9862 ± 0.0097
- ACGAACGGTA — higher, 1.37 ± 0.032
- AAGCTTGCCT — within error, 0.9871 ± 0.0013
- AGTGCGTCTT — within error, 1.01 ± 0.021
- TAATTCGACT — the same, 1.02 ± 0.029
- TATTTATGGT — within error, 0.976 ± 0.039
- CAATAGAGGG — within error, 0.991 ± 0.033
- GCGGAAGAGC — within error, 1.06 ± 0.032
- GATAGTTGCG — within error, 1.03 ± 0.06
- GCTGGGGGTT — within error, 0.996 ± 0.059
- GACTACTGTA — within error, 1.04 ± 0.051
- ATTGTGCGGG — within error, 1.01 ± 0.036
- AATGCCGGCC — within error, 1.08 ± 0.028
- TCAGAGGAAT — within error, 1.01 ± 0.0089
- CAAGTAGGTG — within error, 1.03 ± 0.015
- CTAGCATGAT — within error, 1.03 ± 0.061
- ATGTGCTGCG — within error, 0.993 ± 0.031
- GCCATCAATA — within error, 1.03 ± 0.023
- TTTGCCTCGG — within error, 0.984 ± 0.031
- GGTGTGGCCG — the same, 1.02 ± 0.062
- GATGTCAACG — within error, 0.973 ± 0.032
- CATTATGCTT — within error, 0.9864 ± 0.0014
- TCACTTTGTG — within error, 1.01 ± 0.043
- GCGTAACCGT — within error, 0.99 ± 0.038
- GGCTTGGGCG — within error, 0.983 ± 0.061
- ATTAAAAATG — the same, 1.02 ± 0.042
- ACGGGTGTAG — within error, 0.989 ± 0.052
- ATTTCAAGTT — within error, 0.966 ± 0.011
- TTTGGGCTGC — within error, 1.28 ± 0.41
- CAGATGTGAC — within error, 1.057 ± 0.0061
- TTTCGAGAAC — within error, 0.9873 ± 0.0066
- GTTGAACGCG — within error, 1.028 ± 0.0015
- TCGTTAATGG — within error, 1.004 ± 0.0049
- ATTATCTAGG — within error, 0.985 ± 0.013
- ATGATGCGGG — within error, 1.01 ± 0.044
- GGGCTGGACG — within error, 1 ± 0.043
- CCTACACTGG — within error, 1.13 ± 0.048
- GATTTACGTG — the same, 1.02 ± 0.012
- TAGGTTTTCG — within error, 0.98974 ± 0.00052
- GGTGCTGGAG — within error, 0.98 ± 0.011
- TATCCTTTGA — within error, 1.002 ± 0.0014
- ACGTTGCGAG — within error, 0.994 ± 0.015
- TTCCCTAGTT — within error, 1.004 ± 0.0029
